The values that follow come from patent US20140024594A1.

The target of this test is GFP-MG53 (mouse) (UniProt Q1XH17). Nature of the test: cell-based or functional assay.
Chain of UniProt Q1XH17 (Q1XH17 whole entry): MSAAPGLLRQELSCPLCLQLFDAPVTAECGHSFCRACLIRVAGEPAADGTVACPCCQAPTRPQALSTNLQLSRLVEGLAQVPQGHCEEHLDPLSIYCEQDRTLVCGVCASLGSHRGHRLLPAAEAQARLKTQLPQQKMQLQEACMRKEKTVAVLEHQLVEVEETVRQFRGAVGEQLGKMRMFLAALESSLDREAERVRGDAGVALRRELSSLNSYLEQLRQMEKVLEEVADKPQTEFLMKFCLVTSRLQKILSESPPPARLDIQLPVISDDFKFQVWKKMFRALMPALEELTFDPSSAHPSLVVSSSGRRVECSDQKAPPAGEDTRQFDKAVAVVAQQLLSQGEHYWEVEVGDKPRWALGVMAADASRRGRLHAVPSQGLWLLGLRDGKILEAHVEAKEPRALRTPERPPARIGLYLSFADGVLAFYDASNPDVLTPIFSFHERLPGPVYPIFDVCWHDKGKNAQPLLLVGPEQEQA

For “caveolin-3 overexpressed from pcDNA-Cav-3”, the reduction in the appearance of filapodia-like structures came out at 82%.
